{
  "source": "paper PMC3048900",
  "key": {"[1]": {"target": "Glu11 (UniProt position 354, IAGFIEGGWTG)", "test": "NMR", "conditions": "DPC micelle-bound helical hairpin"}, "[2]": {"target": "Asp19 (UniProt position 362, WTGMIDGWYGY)", "test": "NMR", "conditions": "DPC micelle-bound helical hairpin"}},
  "data": [
    {"substance": "Hemagglutinin HA2 fusion peptide HAfp23 (Influenza A virus (serotype H1; strain not stated))", "values": [
      {"measurement": "pKa", "setting": "[1]", "result": "5.31±0.01"},
      {"measurement": "pKa", "setting": "[2]", "result": "4.35±0.02"}
    ]}
  ]
}
